Key:
[1] = tested on: syndecan-1 association with the αvβ3 and αvβ5 integrins; assay: Co-immunoprecipitation of β3/β5 integrin with syndecan-1 from HMEC-1 cells; format: binding, human; conditions: HMEC-1, 30 μM GST-mS1ED or 1 μM SSTN
From the text: (§1) FIGS. 8A-8D—SSTN disrupts association of syndecan-1 with the αvβ3 and αvβ5 integrins. (FIG. 8A) Diagram of mouse syndecan-4 (mS4), human syndecan-1 (hS1) and mouse syndecan-1 (mS1) and mS1 deletion mutants showing which proteoglycans are able to activate the αvβ3 and αvβ5 integrins. (FIG. 8B) Flow cytometry of human aortic endothelial cells (HAEC), human dermal microvascular endothelial cells (HMEC-1) or mouse aortic endothelial cells (MAEC) using human or mouse-specific antibodies for syndecan-1, αvβ3, and αvβ5. The β5 subunit is detected by Western blot in mouse cells and is compared to B82L fibroblasts known to express this integrin; (FIG. 8C) Human syndecan-1 is immunoprecipitated from HMEC-1 cells in the presence or absence of 30 μM GST, 30 μM GST-mS1ED (mouse syndecan-1 ectodomain), or 1 μM SSTN and detected on blots along with co-precipitating β3 or β5 integrin. (FIG. 8D) Human syndecan-1 is immunoprecipitated from MDA-MB-231 human mammary carcinoma cells expressing full-length mouse syndecan-1 (F1-mS1), a mouse mutant bearing deletion of amino acids 67-121 (mS1^Δ67-121), or vector alone (NEO) and blotted for the co-precipitation of the αvβ3 integrin by detection of the β3 subunit. […]

[2] = molecular target: T1, syndecan-1 association with the αvβ3 integrin (Homo sapiens, UniProt P05106+P06756); assay: Co-immunoprecipitation of αvβ3 integrin with syndecan-1 from MDA-MB-231 cells; format: binding
T1 construct: endogenous in cells; host or cells: MDA-MB-231 human mammary carcinoma cells (some also transfected with mouse syndecan-1 constructs)
From the text: as §1

[3] = tested on: MDA-MB-231 human mammary carcinoma cells; conditions: MDA-MB-231 on vitronectin; shown previously (Beauvais et al., 2004); read-out: IC50, block of cell spreading on VN; cited from earlier work

T1 sequence (P06756 31-889 limits assumed): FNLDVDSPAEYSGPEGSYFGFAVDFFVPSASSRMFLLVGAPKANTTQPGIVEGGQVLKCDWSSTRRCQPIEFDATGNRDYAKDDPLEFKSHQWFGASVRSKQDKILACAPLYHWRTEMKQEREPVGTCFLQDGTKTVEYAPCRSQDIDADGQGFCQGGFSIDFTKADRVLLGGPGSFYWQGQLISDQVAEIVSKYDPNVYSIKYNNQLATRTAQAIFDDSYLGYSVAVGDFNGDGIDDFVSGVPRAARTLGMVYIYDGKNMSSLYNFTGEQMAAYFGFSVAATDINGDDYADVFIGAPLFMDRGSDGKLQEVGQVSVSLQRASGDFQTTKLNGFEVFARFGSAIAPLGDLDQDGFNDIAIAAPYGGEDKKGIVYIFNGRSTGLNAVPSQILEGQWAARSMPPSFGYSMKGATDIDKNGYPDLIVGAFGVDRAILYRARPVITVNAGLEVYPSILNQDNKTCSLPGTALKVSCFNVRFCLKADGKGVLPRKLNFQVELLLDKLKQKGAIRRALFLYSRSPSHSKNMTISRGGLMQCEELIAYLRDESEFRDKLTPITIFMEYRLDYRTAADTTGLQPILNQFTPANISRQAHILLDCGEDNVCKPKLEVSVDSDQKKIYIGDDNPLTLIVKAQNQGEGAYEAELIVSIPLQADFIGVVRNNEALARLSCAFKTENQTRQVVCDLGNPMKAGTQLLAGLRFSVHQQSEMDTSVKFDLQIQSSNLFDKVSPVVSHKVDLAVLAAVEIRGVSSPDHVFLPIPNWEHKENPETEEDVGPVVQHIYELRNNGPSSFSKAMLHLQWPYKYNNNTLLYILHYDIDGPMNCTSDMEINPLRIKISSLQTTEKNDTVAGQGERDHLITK
T1 sequence (P06756 891-1048 limits assumed): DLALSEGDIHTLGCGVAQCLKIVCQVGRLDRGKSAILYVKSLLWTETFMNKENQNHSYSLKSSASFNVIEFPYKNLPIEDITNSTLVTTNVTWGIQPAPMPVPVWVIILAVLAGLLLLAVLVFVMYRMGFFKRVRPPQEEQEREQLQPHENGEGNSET
T1 sequence (P05106 27-788): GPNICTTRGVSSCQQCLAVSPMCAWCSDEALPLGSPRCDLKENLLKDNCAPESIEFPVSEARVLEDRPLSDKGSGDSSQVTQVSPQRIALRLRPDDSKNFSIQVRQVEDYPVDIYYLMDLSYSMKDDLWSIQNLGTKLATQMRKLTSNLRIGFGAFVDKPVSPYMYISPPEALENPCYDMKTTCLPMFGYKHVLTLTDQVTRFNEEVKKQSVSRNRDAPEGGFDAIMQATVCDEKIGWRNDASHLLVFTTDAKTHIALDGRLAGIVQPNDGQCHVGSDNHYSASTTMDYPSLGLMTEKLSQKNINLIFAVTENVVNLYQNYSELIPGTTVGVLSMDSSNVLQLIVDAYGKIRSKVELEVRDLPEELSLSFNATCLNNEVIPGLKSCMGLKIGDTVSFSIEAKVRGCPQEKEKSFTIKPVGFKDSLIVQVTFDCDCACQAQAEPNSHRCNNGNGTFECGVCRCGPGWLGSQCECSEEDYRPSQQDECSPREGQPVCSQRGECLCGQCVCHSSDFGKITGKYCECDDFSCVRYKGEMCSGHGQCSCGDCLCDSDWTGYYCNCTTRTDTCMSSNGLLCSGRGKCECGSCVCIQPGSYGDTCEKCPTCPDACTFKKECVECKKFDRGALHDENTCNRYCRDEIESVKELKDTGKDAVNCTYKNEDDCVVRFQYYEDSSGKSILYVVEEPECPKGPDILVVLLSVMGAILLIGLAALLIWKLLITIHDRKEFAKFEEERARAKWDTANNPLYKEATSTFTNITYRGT

co-immunoprecipitation of αvβ3 integrin with human or mouse syndecan-1 [2]: competed
B1: S1ED: recombinant mouse Sdc1 ectodomain (amino acids 18-251), expressed in bacteria as GST fusion or 6×His-tagged protein (protein)
chain: QPALPQIVAVNVPPEDQDGSGDDSDNFSGSGTGALPDTLSRQTPSTWKDVWLLTATPTAPEPTSSNTETAFTSVLPAGEKPEEGEPVLHVEAEPGFTARDKEKEVTTRPRETVQLPITQRASTVRVTTAQAAVTSHPHGGMQPGLHETSAPTAPGQPDHQPPRVEGGGTSVIKEVVEDGTANQLPAGEGSGEQDFTFETSGENTAVAAVEPGLRNQPPVDEGATGASQSLLDRK
modifications: left off: a dimerising Fc or GST
notes: recombinant mouse Sdc1 ectodomain (amino acids 18-251), expressed in bacteria as GST fusion or 6×His-tagged protein
co-precipitation of β3 and β5 integrin with human syndecan-1 [1]: displace the integrins
IC50 [3]: 3 to 10 µM

Source: US10864251B2, “Peptides of syndecan-1 for inhibiting angiogenesis” (Wisconsin Alumni Research Foundation, priority 2006, dated 2020)
